Assays:
Hck = Hck (UniProt P08631); assay: phosphorylation enrichment, bacterial display (enrichment ratio); higher = better substrate or ligand; peptides without Tyr show the background
MERTK = MERTK (UniProt Q12866); assay: as above
FGFR3 = FGFR3 (UniProt P22607); assay: as above
Fes = Fes (UniProt P07332); assay: as above
Fer (mouse) = assay: as above
FGFR1 = FGFR1 (UniProt P11362); assay: as above
c-Abl (mouse) = assay: as above
AncSZ = assay: as above
c-Src = assay: as above
EPHB2 = EPHB2 (UniProt P29323); assay: as above
Chain of EPHB2 (P29323 whole entry, looked up): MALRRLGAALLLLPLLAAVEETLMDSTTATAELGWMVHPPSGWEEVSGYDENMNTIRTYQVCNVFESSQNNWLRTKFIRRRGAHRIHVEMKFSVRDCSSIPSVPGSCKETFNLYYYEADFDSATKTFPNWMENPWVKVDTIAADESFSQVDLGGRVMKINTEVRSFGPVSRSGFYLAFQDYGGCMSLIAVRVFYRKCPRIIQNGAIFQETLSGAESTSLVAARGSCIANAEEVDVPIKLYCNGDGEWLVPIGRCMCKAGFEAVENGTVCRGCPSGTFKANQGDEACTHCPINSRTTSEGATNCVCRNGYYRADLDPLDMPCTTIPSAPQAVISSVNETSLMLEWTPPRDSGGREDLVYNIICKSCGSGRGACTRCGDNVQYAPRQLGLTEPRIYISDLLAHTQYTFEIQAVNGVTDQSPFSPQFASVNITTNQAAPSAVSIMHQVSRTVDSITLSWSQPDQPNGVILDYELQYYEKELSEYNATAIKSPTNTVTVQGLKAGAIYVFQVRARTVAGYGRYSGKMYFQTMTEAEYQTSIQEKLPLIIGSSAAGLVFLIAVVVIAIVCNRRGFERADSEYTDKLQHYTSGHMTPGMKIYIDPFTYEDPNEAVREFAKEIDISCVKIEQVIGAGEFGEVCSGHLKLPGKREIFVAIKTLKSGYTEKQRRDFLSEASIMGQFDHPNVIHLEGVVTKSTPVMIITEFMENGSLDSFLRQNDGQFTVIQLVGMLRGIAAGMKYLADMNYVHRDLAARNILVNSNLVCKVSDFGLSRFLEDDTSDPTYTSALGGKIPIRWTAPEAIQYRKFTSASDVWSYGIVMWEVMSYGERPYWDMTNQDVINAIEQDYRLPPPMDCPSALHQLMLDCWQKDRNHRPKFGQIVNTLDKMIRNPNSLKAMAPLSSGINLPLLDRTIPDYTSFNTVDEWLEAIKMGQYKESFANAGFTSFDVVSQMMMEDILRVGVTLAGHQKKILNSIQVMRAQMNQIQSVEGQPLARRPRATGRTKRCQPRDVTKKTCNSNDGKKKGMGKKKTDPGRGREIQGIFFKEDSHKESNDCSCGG

Jak2 = Jak2 (UniProt O60674); assay: as above
Chain of Jak2 (O60674 whole entry, looked up): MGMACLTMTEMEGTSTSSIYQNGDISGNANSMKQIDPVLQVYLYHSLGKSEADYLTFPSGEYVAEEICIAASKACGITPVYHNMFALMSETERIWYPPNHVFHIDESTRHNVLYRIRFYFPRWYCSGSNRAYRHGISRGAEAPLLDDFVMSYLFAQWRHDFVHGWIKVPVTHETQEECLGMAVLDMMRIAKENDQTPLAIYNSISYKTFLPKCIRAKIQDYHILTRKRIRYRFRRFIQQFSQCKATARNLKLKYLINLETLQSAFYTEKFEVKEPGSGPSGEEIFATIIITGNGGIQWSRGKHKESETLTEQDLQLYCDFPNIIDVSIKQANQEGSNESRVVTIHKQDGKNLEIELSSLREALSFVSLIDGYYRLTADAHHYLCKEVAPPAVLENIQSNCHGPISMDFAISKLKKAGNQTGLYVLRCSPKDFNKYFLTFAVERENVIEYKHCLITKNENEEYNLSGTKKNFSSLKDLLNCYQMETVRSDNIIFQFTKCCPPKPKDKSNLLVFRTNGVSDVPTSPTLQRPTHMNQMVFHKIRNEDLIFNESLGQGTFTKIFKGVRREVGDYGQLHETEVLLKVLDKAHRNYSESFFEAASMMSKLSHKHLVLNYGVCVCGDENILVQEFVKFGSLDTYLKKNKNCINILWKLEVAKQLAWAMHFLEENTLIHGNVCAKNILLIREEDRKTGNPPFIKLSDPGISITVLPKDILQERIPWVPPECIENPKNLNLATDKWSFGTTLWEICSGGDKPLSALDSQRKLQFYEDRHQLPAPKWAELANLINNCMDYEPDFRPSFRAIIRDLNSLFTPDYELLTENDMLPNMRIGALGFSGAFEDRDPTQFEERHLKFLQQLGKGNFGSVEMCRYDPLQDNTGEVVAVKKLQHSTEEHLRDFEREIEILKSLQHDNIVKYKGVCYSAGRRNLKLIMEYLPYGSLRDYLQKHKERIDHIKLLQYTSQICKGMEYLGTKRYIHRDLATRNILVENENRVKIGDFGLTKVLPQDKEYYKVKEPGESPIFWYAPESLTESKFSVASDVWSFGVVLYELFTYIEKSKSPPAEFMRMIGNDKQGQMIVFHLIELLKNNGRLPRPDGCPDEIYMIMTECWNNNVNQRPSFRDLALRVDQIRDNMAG

EPHB1 = EPHB1 (UniProt P54762); assay: as above
Fyn = Fyn (UniProt P06241); assay: as above
Chain of Fyn (P06241 whole entry, looked up): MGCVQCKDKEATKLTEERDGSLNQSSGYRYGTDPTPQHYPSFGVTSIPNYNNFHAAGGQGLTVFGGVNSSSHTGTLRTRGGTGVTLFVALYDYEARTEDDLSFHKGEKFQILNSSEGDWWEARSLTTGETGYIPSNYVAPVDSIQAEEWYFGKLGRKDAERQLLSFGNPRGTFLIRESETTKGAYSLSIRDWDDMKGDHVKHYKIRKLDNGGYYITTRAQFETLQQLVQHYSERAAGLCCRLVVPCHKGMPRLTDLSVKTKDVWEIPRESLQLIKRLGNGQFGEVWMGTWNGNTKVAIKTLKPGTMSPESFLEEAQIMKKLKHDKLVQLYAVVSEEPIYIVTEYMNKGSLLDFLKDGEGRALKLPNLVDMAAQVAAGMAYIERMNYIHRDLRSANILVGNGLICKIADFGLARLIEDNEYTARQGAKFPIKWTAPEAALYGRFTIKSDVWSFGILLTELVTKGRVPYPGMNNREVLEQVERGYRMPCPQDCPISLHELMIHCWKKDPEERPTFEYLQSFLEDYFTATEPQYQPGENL

SHP2-C SH2 = assay: SH2 binding enrichment of the phosphorylated peptide, bacterial display (enrichment ratio); higher = better substrate or ligand; peptides without Tyr show the background
Grb2 SH2 = Grb2 SH2 (UniProt P62993); assay: as above
c-Src SH2 = assay: as above
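Wherever SH2 binding enrichment of the phosphorylated peptide, bacterial display is given: peptide library displayed on the E. coli surface as eCPX fusions, selected cells deep-sequenced, score is each peptide's frequency after selection divided by its frequency in the input.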
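Wherever phosphorylation enrichment, bacterial display is given: 11-residue human phosphosite peptides and single-mutation variants displayed on the E. coli surface, counted by deep sequencing, each peptide's frequency after selection divided by its frequency in the unselected input library; frequency after pTyr selection over input frequency; kinase dosed for 20-30% of maximal phosphorylation in three min.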

Chain of Hck (P08631 whole entry, looked up): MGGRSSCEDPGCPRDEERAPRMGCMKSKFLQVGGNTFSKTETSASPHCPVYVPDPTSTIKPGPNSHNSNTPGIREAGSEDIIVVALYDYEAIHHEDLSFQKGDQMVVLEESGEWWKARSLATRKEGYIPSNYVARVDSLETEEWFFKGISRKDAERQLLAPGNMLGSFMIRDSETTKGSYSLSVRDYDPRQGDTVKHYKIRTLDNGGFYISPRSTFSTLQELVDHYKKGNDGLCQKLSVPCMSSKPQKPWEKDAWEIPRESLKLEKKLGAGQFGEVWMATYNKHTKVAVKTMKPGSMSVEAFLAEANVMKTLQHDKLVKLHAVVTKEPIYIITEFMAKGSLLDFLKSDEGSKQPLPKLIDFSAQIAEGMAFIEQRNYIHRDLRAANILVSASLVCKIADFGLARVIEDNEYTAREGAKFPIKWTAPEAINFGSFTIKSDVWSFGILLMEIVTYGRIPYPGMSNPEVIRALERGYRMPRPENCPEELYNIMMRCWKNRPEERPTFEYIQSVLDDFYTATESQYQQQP
Chain of FGFR3 (P22607 whole entry, looked up): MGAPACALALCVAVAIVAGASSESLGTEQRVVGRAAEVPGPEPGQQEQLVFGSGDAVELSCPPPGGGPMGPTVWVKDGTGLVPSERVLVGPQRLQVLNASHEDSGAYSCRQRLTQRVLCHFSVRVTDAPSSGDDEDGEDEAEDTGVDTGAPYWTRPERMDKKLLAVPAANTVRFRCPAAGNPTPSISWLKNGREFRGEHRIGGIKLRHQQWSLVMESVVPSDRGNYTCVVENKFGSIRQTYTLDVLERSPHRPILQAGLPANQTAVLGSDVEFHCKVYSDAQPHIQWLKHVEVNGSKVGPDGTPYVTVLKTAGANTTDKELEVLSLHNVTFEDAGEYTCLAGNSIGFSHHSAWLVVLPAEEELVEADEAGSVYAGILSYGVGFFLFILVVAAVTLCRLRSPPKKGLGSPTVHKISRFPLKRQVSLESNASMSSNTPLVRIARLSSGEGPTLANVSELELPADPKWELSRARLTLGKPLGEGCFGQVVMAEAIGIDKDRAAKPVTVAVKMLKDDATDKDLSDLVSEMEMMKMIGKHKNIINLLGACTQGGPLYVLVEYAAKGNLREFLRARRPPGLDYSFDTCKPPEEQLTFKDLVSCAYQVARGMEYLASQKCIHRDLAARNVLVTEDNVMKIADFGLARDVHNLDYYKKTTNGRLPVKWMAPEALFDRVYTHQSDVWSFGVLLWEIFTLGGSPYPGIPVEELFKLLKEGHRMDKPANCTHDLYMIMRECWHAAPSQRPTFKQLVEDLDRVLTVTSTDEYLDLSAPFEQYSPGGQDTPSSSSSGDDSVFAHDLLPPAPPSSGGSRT
Chain of MERTK (Q12866 whole entry, looked up): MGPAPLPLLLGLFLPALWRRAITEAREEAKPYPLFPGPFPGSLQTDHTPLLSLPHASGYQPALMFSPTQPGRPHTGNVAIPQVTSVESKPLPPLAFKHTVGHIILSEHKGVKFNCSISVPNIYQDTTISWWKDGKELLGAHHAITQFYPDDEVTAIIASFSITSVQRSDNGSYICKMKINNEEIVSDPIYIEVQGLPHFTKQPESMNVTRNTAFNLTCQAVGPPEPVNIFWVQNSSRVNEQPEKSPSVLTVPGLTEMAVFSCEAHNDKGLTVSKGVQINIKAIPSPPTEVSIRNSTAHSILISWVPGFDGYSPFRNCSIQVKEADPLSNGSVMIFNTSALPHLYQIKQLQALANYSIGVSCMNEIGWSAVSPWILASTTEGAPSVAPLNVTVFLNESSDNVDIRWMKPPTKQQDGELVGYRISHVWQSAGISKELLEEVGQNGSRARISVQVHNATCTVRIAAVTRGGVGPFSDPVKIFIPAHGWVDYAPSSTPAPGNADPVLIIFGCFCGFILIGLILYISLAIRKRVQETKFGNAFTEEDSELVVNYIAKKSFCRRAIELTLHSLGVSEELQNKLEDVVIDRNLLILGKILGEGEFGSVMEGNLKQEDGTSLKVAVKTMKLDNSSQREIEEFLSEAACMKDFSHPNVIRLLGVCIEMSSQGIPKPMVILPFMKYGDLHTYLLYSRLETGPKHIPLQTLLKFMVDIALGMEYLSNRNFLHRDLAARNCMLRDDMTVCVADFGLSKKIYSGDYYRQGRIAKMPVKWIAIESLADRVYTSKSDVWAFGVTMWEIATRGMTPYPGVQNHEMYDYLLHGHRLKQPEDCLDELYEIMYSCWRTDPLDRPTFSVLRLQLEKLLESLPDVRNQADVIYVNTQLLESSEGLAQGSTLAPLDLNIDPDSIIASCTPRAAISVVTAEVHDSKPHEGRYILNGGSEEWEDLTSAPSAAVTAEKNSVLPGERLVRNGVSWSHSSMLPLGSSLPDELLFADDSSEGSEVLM

| Sequence | SH2 binding enrichment (SHP2-C SH2) | SH2 binding enrichment (Grb2 SH2) | SH2 binding enrichment (c-Src SH2) | phosphorylation enrichment (Hck) | phosphorylation enrichment (MERTK) | phosphorylation enrichment (FGFR3) | phosphorylation enrichment (Fes) | phosphorylation enrichment (Fer (mouse)) | phosphorylation enrichment (FGFR1) | phosphorylation enrichment (c-Abl (mouse)) | phosphorylation enrichment (AncSZ) | phosphorylation enrichment (c-Src) | phosphorylation enrichment (EPHB2) | phosphorylation enrichment (Jak2) | phosphorylation enrichment (EPHB1) | phosphorylation enrichment (Fyn) |
| --- | --- | --- | --- | --- | --- | --- | --- | --- | --- | --- | --- | --- | --- | --- | --- | --- |
| KSVLVYRNGDP [DCDC2_Y22] | 0.829 | 0.972 | 0.622 | 0.405 | 0.355 | 0.449 | 0.617 | 0.435 | 0.362 | 0.446 | 0.539 | 0.4 | 0.401 | 0.55 | 0.431 | 0.426 |
| KTNVSYFGALD [CACNB4_Y103_C104F] | 0.63 | 0.847 | 0.443 | 0.484 | 0.426 | 0.634 | 0.848 | 0.464 | 0.509 | 0.59 | 0.789 | 0.438 | 0.43 | 0.653 | 0.438 | 0.554 |
| KVKPIYFHTQG [AR_Y916] | 1.82 | 1.59 | 1.37 | 0.385 | 0.356 | 0.507 | 0.708 | 0.28 | 0.468 | 0.578 | 0.645 | 0.522 | 0.422 | 0.53 | 0.358 | 0.371 |
| KVKPIYLHTQG [AR_Y916_F917L] | 1.84 | 1.71 | 1.65 | 0.39 | 0.54 | 0.612 | 0.728 | 0.438 | 0.441 | 0.736 | 0.687 | 0.402 | 0.457 | 0.61 | 0.496 | 0.405 |

Now from value to sequence, other results behind:

| SH2 binding enrichment (SHP2-C SH2) | SH2 binding enrichment (Grb2 SH2) | SH2 binding enrichment (c-Src SH2) | Sequence | phosphorylation enrichment (Hck) | phosphorylation enrichment (MERTK) | phosphorylation enrichment (FGFR3) | phosphorylation enrichment (Fes) | phosphorylation enrichment (Fer (mouse)) | phosphorylation enrichment (FGFR1) | phosphorylation enrichment (c-Abl (mouse)) | phosphorylation enrichment (AncSZ) | phosphorylation enrichment (c-Src) | phosphorylation enrichment (EPHB2) | phosphorylation enrichment (Jak2) | phosphorylation enrichment (EPHB1) | phosphorylation enrichment (Fyn) |
| --- | --- | --- | --- | --- | --- | --- | --- | --- | --- | --- | --- | --- | --- | --- | --- | --- |
| 0.782 | 1.14 | 1.14 | KSVEEYANCHL [TF_Y593_P589S] | 0.486 | 0.521 | 0.666 | 0.85 | 0.466 | 0.475 | 0.628 | 0.756 | 0.408 | 0.429 | 0.688 | 0.482 | 0.458 |
| 0.654 | 0.824 | 0.427 | KTSGNYLAVTG [WDR19_Y28] | 0.454 | 0.757 | 0.457 | 0.57 | 0.404 | 0.5 | 0.445 | 0.573 | 0.42 | 0.517 | 0.449 | 0.974 | 0.536 |
| 0.724 | 0.843 | 0.48 | KVGRVYLFLQP [ITGA2B_Y360_E355K] | 0.462 | 0.391 | 0.768 | 1.2 | 0.492 | 0.404 | 0.75 | 1.02 | 0.362 | 0.522 | 0.983 | 0.558 | 0.375 |
| 0.999 | 0.889 | 0.494 | KVNKIYHPDFI [LIG3_Y767_Y768H] | 0.488 | 0.443 | 0.539 | 0.627 | 0.395 | 0.398 | 0.473 | 0.542 | 0.43 | 0.417 | 0.574 | 0.39 | 0.417 |

— the supplement of paper PMC10065799, “High-throughput profiling of sequence recognition by tyrosine kinases and SH2 domains using bacterial peptide display” (eLife, 2023)
